{
  "source": "patent US7060795",
  "about": "(KIMBERLY CLARK WORLDWIDE, dated 2006)",
  "binders": {"B1": {"name": "SEQ ID NO:5 polypeptide (DST; Delta Synthetic TIMP), purified Fraction IV protein (designed binder)", "chain": "CSCSPVHPQQAFSNADVVIRAKAVSEKEVDSGNDIYGNPIKRIQYEIKQIKMFKGPEKDIEFIYTAPSSAVCGVSLDVGGKKEYCIAGKAEGDGKMHITLCDFICPW", "notes": "It was expressed in E. coli as an MBP fusion and cleaved with Factor Xa; It is monomeric by gel filtration; Three disulfide bonds; also called DST protein"}},
  "key": {"[1]": {"molecular_target": "T1, matrix metalloproteinase-9 (MMP-9) (UniProt P14780 107-707, limits assumed)", "T1 sequence (P14780 107-707 limits assumed)": "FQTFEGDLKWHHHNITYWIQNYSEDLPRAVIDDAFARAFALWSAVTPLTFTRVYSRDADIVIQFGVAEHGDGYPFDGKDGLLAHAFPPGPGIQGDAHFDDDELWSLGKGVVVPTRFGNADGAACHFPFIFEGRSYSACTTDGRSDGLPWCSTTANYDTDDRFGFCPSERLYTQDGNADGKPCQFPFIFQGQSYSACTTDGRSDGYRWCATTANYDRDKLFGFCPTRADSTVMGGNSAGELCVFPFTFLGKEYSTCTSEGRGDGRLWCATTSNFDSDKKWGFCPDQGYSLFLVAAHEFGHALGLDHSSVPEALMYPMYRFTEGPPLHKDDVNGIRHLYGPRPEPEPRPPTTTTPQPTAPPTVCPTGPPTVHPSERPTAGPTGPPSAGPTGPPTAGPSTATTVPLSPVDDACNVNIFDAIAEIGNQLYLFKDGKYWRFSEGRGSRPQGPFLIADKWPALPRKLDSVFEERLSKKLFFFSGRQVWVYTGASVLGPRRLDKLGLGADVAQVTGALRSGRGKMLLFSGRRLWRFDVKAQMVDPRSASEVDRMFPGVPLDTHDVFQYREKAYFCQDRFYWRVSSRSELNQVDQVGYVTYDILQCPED", "experiment": "SPR (BiaCore-X, CM-5 chip); KA = ka/kd"}, "[2]": {"molecular_target": "T2, matrix metalloproteinase-1 (MMP-1) (UniProt P03956 100-469, limits assumed)", "T2 sequence (looked up)": "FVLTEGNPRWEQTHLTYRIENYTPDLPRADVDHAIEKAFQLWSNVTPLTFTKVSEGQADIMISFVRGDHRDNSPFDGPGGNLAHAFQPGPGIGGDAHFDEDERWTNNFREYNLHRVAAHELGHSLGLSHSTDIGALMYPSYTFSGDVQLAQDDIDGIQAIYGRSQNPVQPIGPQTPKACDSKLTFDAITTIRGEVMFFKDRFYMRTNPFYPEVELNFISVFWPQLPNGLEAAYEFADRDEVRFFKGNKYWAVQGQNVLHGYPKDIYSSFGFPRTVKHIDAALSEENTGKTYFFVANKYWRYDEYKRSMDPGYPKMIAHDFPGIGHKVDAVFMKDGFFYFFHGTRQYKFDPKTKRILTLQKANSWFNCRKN", "experiment": "fluoresceinated collagen hydrolysis assay, Dixon plot, competitive inhibition assumed; target MMP-1", "method": "(§1) Inhibition of MMPs: The assay employed measured the enzymatic hydrolysis of fluoresceinated collagen by MMP-9 or other matrix metalloproteinases as a function of time. Fluoresceinated collagen at a concentration of 5 μM was added to reaction buffer (50 mM Tris-HCl (pH 7.6), 150 mM NaCl, 5 mM CaCl_2, 0.1 mM NaN_3) and was placed into a Spectrosil quartz fluorimeter cuvette. MMP at a concentration of 0.1 μM was mixed with varying amounts of polypeptide inhibitor (SEQ ID NO:5 or SEQ ID NO:20) and incubated at 25° C. for 10 minutes in order to effect binding. The protein mixture was added to the collagen substrate, and mixed. Fluorescence emission intensity at 520 nm was measured as a function of time using an excitation wavelength of 495 nm in a Shimadzu RF5301 fluorimeter. The fluorescein release assay was used to determine the inhibitory constant (K_i) of the protein based matrix metalloproteinase inhibitor ([I]) according to Segel (1993) by using Dixon plots (1/v vs. [I]), where: […]"}, "[3]": {"molecular_target": "T1, matrix metalloproteinase-9 (MMP-9)", "experiment": "SPR (BiaCore-X, CM-5 chip); MMP-9 coupled to the chip, SEQ ID NO:5 polypeptide in PBS flowed over"}, "[4]": {"molecular_target": "T1, matrix metalloproteinase-9 (MMP-9)", "experiment": "fluoresceinated collagen hydrolysis assay, Dixon plot, competitive inhibition assumed; target MMP-9", "method": "as §1"}},
  "data": [
    {"binder": "B1", "values": [
      {"measurement": "Ka", "setting": "[1]", "result": "1.5e+08", "unit": "M⁻¹"},
      {"measurement": "Ki", "setting": "[2]", "result": 12, "unit": "nM"},
      {"measurement": "koff", "setting": "[3]", "result": 0.0013, "unit": "s⁻¹"},
      {"measurement": "kon", "setting": "[3]", "result": 200000, "unit": "M⁻¹ s⁻¹"},
      {"measurement": "Ki", "setting": "[4]", "result": 16, "unit": "nM"}
    ]}
  ]
}
